Data taken from paper PMC5600358.

B1: ds59 (Pu59/Py59) (dsDNA)
DNA 1: GGCGGCGCGGAGGGGCGGGCGCGGGAGGAAGGGGGCGGGACGGGGCTGTGGTGCCTGT
DNA 2: ACAGGCACCACAGCCCCGTCCCGCCCCCTTCCTCCCGCGCCCGCCCCTCCGCGCCGCC
B2: Pu59 (G-strand) (structured_DNA)
DNA: B1 DNA 1
B3: Py59 (C-strand) (ssDNA)
DNA: B1 DNA 2

Molecular target: WT1 ZF-KTS (zinc finger domain, -KTS isoform) (Homo sapiens (cDNA from HL-60 cells), UniProt P19544 312-407+411-449, internal_change)
Test: EMSA

**Q.** Does B1 bind?
**A.** Result: binds

**Q.** Does B2 bind?
**A.** Result: no binding

**Q.** Does B3 bind?
**A.** Result: no binding
